Test results as given in the supplement of paper PMC9170038.

Tested on: MS2 coat protein
Test: apparent KD of MS2 coat protein; designed switch direction (-1 OFF switch, 1 ON switch): -1; higher = weaker reporter binding
Procedure, shortened: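 An oligonucleotide input, 200 uM small-molecule ligand, or no input was present during titration of SNAP-549-labelled MS2 coat protein, which was doubled from 0.7 or 1.5 nM to 3 µM. Designed RNA switches had been transcribed on Illumina chips by stalled E. coli RNA polymerase. Apparent KD per design is the median over clusters of curves fitted to normalised cluster fluorescence.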

[1] = Eterna round: R95, input ligand: FMN 200 uM
[2] = Eterna round: R95, input ligand: microRNA oligo, concentration not stated
[3] = Eterna round: R95, input ligand: none
[4] = input ligand: microRNA oligo, concentration not stated

Sequence	apparent KD of MS2 coat protein (input ligand: FMN 200 uM)	apparent KD of MS2 coat protein (input ligand: none)	apparent KD of MS2 coat protein [1]	apparent KD of MS2 coat protein [2]	apparent KD of MS2 coat protein [3]	apparent KD of MS2 coat protein [4]
UUUAGUUCAGGAUAUGUAGAUUUAAACAUGAGGAUCACCCAUGUAAAUCCUGAUCCUGCUACAGAAGGGAACAUUU [Mat - Exclusion 5 - Eli Mod - D11] (Eterna round: R97, puzzle: Exclusion 5)	16.6 nM	12.7 nM				
AAGAUGUGAGGAUAUCACGAAGGCGUCAAACUGACGCCUUCUGAGAAGGCACAUGAGGAUCACCCAUGUCCAAA [EX4 A.23] (Eterna round: R97, puzzle: Exclusion 4)	325 nM	58.6 nM				
GAUUAUGCGAGCUUUAGGGACAUGAGGAUCACCCAUGUUCGUCUUAUUAGUCUAAAUACACUGACAUACCUAAAUCU [JMF 54] (puzzle: Sensor v3, turn-off variant 1)			17.3 nM	15.9 nM	13.6 nM	
GUGACUCAGCAGGAUAUACGCGCGAGUGCGUAAGUAGAAGGGUUGACAUGAGGAUCACCCAUGUAGAACCACAC [Eternabot (L2) Solution 18] (Eterna round: R97, puzzle: Exclusion 6)	19.9 nM	18.4 nM				
CGUCAGUGAGGAUAUGGUAUCGUUUACAUGAGGAUCACCCAUGUUUCAUGGGACUAGAGACUAGAAGGUACUGACG [EX5 #43] (Eterna round: R97, puzzle: Exclusion 5)	408 nM	579 nM				
AAGGGUGCUUUCGGAACGACAUGAGGAUCACCCAUGUAGACUGAGGAUAUCUACUUCUAAGGACGGGAGAAGGCAGUGUAAUGU [Ex NG3 #70] (Eterna round: R96, puzzle: Exclusion NG 3)	44.5 nM	39.8 nM				29 nM
GCAAGGGAAGGAUAUACAUUACGACCGUCAUAGUACCUGCGACAUGAGGAUCACCCAUGUAGAAGGUCCAGCGG [EX2 C.13] (Eterna round: R97, puzzle: Exclusion 2)	17.4 nM	13.3 nM				
CACCUGAAGACAGGAUAUCAUACAUGAGGAUCACCCAUGUAAUAAAUGAGAAUUUCGAAUGUAAUUGAGAAGGGUCGAUAAGGC [Ostricism 91 - Jieux - Exclusion NG 2] (Eterna round: R96, puzzle: Exclusion NG 2)	78.9 nM	30.6 nM				30.6 nM
UGAUCACAUGAGGAUCACCCAUGUCAGGAUAUCUACAUUGAAGCUUCGGCUUCAAUGUAGAGAAGGGAUAUAAU [E1/5-B1] (Eterna round: R97, puzzle: Exclusion 1)	203 nM	82.8 nM				
UCUGUUUUGCGAGGAUAUCGACCAUUCCUCUUAACAUGAGGAUCACCCAUGUGCUAAUCCUACAACGAGAAGGCGCUCAUACUC [JR_ExcNG2_Sub066] (Eterna round: R96, puzzle: Exclusion NG 2)						195 nM
UUACAAUGUCGCUUACAAGCUUUUUGCUCGUCUUAUAUUACAUGAGGAUCACCCAUGUAGAUCAUGUGGCGUGACCU [JL ViennaUCT Maridi mod 9] (puzzle: Sensor v3, turn-off variant 2)			165 nM	23.3 nM	208 nM	
AGUGUGAGGCAGGAUAUGCAAUUUGUAAGUAAUGCAGAAGGGUCUACAUGAGGAUCACCCAUGUGUGCGGUUGA [Ex6 #11] (Eterna round: R97, puzzle: Exclusion 6)	447 nM	246 nM				
GAUUAGCAAGCGAGAUCCCACAUGAGGAUCACCCAUGUGCUCGUCUUAUAAAGUACUGUGACGAAAGUCACGGUACA [Mat - Sensor, turn-off var - Eli Mod - D11] (Eterna round: R97, puzzle: Sensor, turn-off variant 1)	17.2 nM	14.8 nM				
UGCUGACAAGGAUAUACAUGAGGAUCACCCAUGUUGGUUCAGCGACGAUAGUCGCAAUGUAGAAGGUGUCAGCA [E3/9-C1] (Eterna round: R97, puzzle: Exclusion 3)	135 nM	236 nM				
UAUUUAAUUAACAAGCUUUACAUGAGGAUCACCCAUGUGAUCAUGCUCGUCUUAGGUACAGGCUUCGGCCUGUACCA [Stov1/6-B2] (Eterna round: R97, puzzle: Sensor, turn-off variant 1)	51.8 nM	55.9 nM				
ACAUGUCAUCGAGGAUAUUGGACACAUGAGGAUCACCCAUGUACUCGGAGGCUCUACCAUGAGUUCGAGAAGGCGAUGUACAUU [Ex NG2 #77] (Eterna round: R96, puzzle: Exclusion NG 2)	542 nM	230 nM				256 nM
GCGGACUAGUUCGUGAGAACUGAGACAUGAGGAUCACCCAUGUAGGAUAUCGAUUCGAAACGAAUCGAGAAGGGCAUAGUCCGC [JL denovo 9] (Eterna round: R96, puzzle: Exclusion NG 3)	25.1 nM	26.8 nM				17.7 nM
AGCCAAGCAGGAUAUAUCCGGGAUAACAUGAGGAUCACCCAUGUGACCGAUUGAUAUCCUAUAGAAGGGCUUGGGA [Mod of ViennaUCT 23 - Jieux - Exclusion 5] (Eterna round: R97, puzzle: Exclusion 5)	135 nM	43.5 nM				
AAGAAACAUGAGGAUCACCCAUGUGAGGAUAUGAGUAAGAAAAGAAAAGAAAGAAGAUUCAGAAGGCACAAAGG [salish99-ex1_r3_057] (puzzle: Exclusion 1)			94.7 nM	58.1 nM	73.2 nM	
UAUAUGUGAGGAUAUCAGGUGUGCUAGCGUACUGGUACAUCUGAGAAGGCACAUGAGGAUCACCCAUGUAUCUU [JL-ex4-3.25 Brourd mod] (puzzle: Exclusion 4)				25.5 nM		
AGAGUGCUGCGAGGAUAUACAUGAGGAUCACCCAUGUUUUCGUGUGAGGCUUUGCCUCACACGAAGUAGAAGGCGCAGUACUCA [Mat - Exclusion NG 2 - Mod of JL - D32] (Eterna round: R96, puzzle: Exclusion NG 2)	7.28 nM	10.9 nM				9.46 nM
CGACCACAUGAGGAUCACCCAUGUCAGGAUAUGAGAGCCUUACGAAAGAGACGGCAGCUUAGAAGGGAUGCGGC [Eternabot (L1) Solution 74] (Eterna round: R97, puzzle: Exclusion 1)	23.3 nM	26.9 nM				
CUCCGGCGUGUAGGAUAUGGAUCCGAUUAGGAUCCAGAAGGACAUGAGGAUCACCCAUGUACAUGUAAACGGUCGUCACCGGGC [salish99_ExNG1_r04_207] (Eterna round: R96, puzzle: Exclusion NG 1)	134 nM	61.3 nM				26.2 nM
CUUAAGGCAGGAUAUGCUGUUUGUGACAUGAGGAUCACCCAUGUGAUGCAGUUUGGGUGUGCAGAAGGGCCUGAGU [JR_E5_Sub032] (puzzle: Exclusion 5)			96.4 nM	71.5 nM	131 nM	
UGAUCUAGCGGAGGAUAUACAUGAGGAUCACCCAUGUAGAUAACAUGACCGUAGUCGUGUAACGUGUAGAAGGCCGCUAGAUCU [JL ENG2 3.68] (Eterna round: R96, puzzle: Exclusion NG 2)	104 nM	23 nM				17 nM
